This test deals with NLuc-GhBOP1 (Gossypium hirsutum).

As to CLuc-GhTGA3 (natural protein), the GUS staining intensity from GhPR1pro:GUS in tobacco leaves: 35S:GhTGA3 + 35S:GhBOP1 + reporter against 35S:GhTGA3 + reporter worked out at 2 fold.

These data come from publication PMC6588604.
